According to patent US10125358B2, “Methods and compounds for increasing threonyl-tRNA synthetase activity” (UNIVERSITY OF VERMONT AND STATE AGRICULTURAL COLLEGE, priority 2012, dated 2018):
“Also recorded” adds a separate entry of the source.

Test system: HUVECs
Test: VEGF secretion into culture media (ELISA)
Assay type: cell-based, human
Conditions: purified recombinant TARS added to HUVEC media for 24 h
Experimental: ELISA and Lactate Dehydrogenase Assays—
Culture media supernatants were tested for levels of secreted TARS protein using the Threonyl tRNA Synthetase (TARS) ELISA Kit (USCN Life Science, Wuhan, Hubei, PRC) according to manufacturer's instructions. Cell membrane integrity was confirmed using the lactate dehydrogenase assay CytoTox-ONE™ Homogeneous Membrane Integrity Assay (Promega, Madison, Wis.) according to manufacturer's instructions and reported as percent cytotoxicity relative to a lysis control. Levels of secreted VEGF were measured using the Human VEGF ELISA kit (Thermo Scientific) per manufacturer's instructions.

B1: TARS: N-terminal His6-tagged human threonyl-tRNA synthetase expressed and purified from E. coli; SEQ ID NO:2 (protein, listed as Homo sapiens)
chain: MFEEKASSPSGKMGGEEKPIGAGEEKQKEGGKKKNKEGSGDGGRAELNPWPEYIYTRLEMYNILKAEHDSILAEKAEKDSKPIKVTLPDGKQVDAESWKTTPYQIACGISQGLADNTVIAKVNNVVWDLDRPLEEDCTLELLKFEDEEAQAVYWHSSAHIMGEAMERVYGGCLCYGPPIENGFYYDMYLEEGGVSSNDFSSLEALCKKIIKEKQAFERLEVKKETLLAMFKYNKFKCRILNEKVNTPTTTVYRCGPLIDLCRGPHVRHTGKIKALKIHKNSSTYWEGKADMETLQRIYGISFPDPKMLKEWEKFQEEAKNRDHRKIGRDQELYFFHELSPGSCFFLPKGAYIYNALIEFIRSEYRKRGFQEVVTPNIFNSRLWMTSGHWQHYSENMFSFEVEKELFALKPMNCPGHCLMFDHRPRSWRELPLRLADFGVLHRNELSGALTGLTRVRRFQQDDAHIFCAMEQIEDEIKGCLDFLRTVYSVFGFSFKLNLSTRPEKFLGDIEVWDQAEKQLENSLNEFGEKWELNSGDGAFYGPKIDIQIKDAIGRYHQCATIQLDFQLPIRFNLTYVSHDGDDKKRPVIVHRAILGSVERMIAILTENYGGKWPFWLSPRQVMVVPVGPTCDEYAQKVRQQFHDAKFMADIDLDPGCTLNKKIRNAQLAQYNFILVVGEKEKISGTVNIRTRDNKVHGERTISETIERLQQLKEFRSKQAEEEF
modifications: N-terminal His6 tag
secretion of VEGF: did not induce secretion of VEGF; also recorded: does not induce VEGF secretion
